From article doi:10.1101/449629 come the findings set out here.

Assay [1] has as its target Recombinant hamster MIF (Syrian golden hamster macrophage migration inhibitory factor) (Syrian golden hamster (Mesocricetus auratus)). Description: crystal structure.
For assay [2] the target is unchanged. In words: SEC. On the technique in general: In gel filtration, larger molecules generally elute earlier.

Usually stoichiometry N stands for the number of molecules, sites or subunits per partner or assembly.

On to “Recombinant hamster MIF (Syrian golden hamster macrophage migration inhibitory factor) (from UniProt A0A140EDM8 1-115) (natural protein)”, for which the stoichiometry N in assay [1] and in assay [2] was 3 throughout.
